Reference: IntAct's records for PubMed 38057552

B1: Sodium/glucose cotransporter 2 (Homo sapiens), P31639 (parent)
chain: MEEHTEAGSAPEMGAQKALIDNPADILVIAAYFLLVIGVGLWSMCRTNRGTVGGYFLAGRSMVWWPVGASLFASNIGSGHFVGLAGTGAASGLAVAGFEWNALFVVLLLGWLFAPVYLTAGVITMPQYLRKRFGGRRIRLYLSVLSLFLYIFTKISVDMFSGAVFIQQALGWNIYASVIALLGITMIYTVTGGLAALMYTDTVQTFVILGGACILMGYAFHEVGGYSGLFDKYLGAATSLTVSEDPAVGNISSFCYRPRPDSYHLLRHPVTGDLPWPALLLGLTIVSGWYWCSDQVIVQRCLAGKSLTHIKAGCILCGYLKLTPMFLMVMPGMISRILYPDEVACVVPEVCRRVCGTEVGCSNIAYPRLVVKLMPNGLRGLMLAVMLAALMSSLASIFNSSSTLFTMDIYTRLRPRAGDRELLLVGRLWVVFIVVVSVAWLPVVQAAQGGQLFDYIQAVSSYLAPPVSAVFVLALFVPRVNEQGAFWGLIGGLLMGLARLIPEFSFGSGSCVQPSACPAFLCGVHYLYFAIVLFFCSGLLTLTVSLCTAPIPRKHLHRLVFSLRHSKEEREDLDADEQQGSSLPVQNGCPESAMEMNEPQAPAPSLFRQCLLWFCGMSRGGVGSPPPLTQEEAAAAARRLEDISEDPSWARVVNLNALLMMAVAVFLWGFYA
partner: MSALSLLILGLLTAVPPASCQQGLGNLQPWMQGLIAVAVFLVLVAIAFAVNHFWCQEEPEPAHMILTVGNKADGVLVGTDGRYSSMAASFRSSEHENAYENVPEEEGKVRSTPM

Variants of: B1
Conditions: with pdz1i_human PDZK1IP1, Q13113

Variant | effect of a mutation on the interaction
D201A | with no effect
S74A | with no effect
F98A | with no effect
